The source of these data is publication PMC7431520.

For orientation: pKd means the negative decadic logarithm of the Kd, by convention in mol/L. Broadly, the stoichiometry N is the number of molecules, sites or subunits per partner or assembly.

For assay [1], the target named is recombinant LAL2 (rLAL2) protein (Lampetra japonica). As to the kind of experiment: SPR; rLAL2 coupled to a CM5 chip (NHS/EDC, buffer pH 4.0, blocked with ethanolamine); LIP as analyte at different concentrations in HBS-EP; Biacore T200; affinity kinetics fitting.
In assay [2] the target is natural LAL2 protein (Lampetra japonica). Kind of assay: SDS-PAGE and western blot band identified by LC-MS/MS; lamprey serum on 12% SDS-PAGE, blot with rabbit anti-LAL2 antibody; band around 40 kDa analysed by LC-MS/MS of tryptic peptides. A general note: In western blotting, separated proteins are transferred to a membrane and probed.
The target in assay [3] is lamprey immune protein (LIP) (Lampetra japonica). Kind of assay: SPR; LIP coupled to a CM5 chip (NHS/EDC, buffer pH 4.0, blocked with ethanolamine); analyte (rLAL2 or TRX) at different concentrations in HBS-EP; Biacore T200; affinity kinetics fitting.

pKd: −log10 of the molar value.

In the case of “lamprey immune protein (LIP) (natural protein)”, the pKd in assay [1] is 7.68.

Consider natural LAL2 protein (natural protein), for which the stoichiometry N in assay [2] is 2.

The substance “recombinant LAL2 (rLAL2) protein (natural protein)” gave a pKd in assay [3] of 7.25.
